Columns and labels:
VvEG16 [1] = target: VvEG16 (Vitis vinifera, UniProt F6I323, C21S/DEL151-151/C188S); assay: X-ray crystallography, […] Å; format: binding; conditions: co-crystallised with 5 mM; negative subsites
VvEG16 [2] = target: T1, VvEG16 (Vitis vinifera, UniProt F6I323, E88A/DEL151-151); assay: X-ray crystallography, […] Å; format: binding; conditions: negative subsites of chain A; from tXyGO mixture
VvEG16 [3] = target: T1, VvEG16; assay: X-ray crystallography, […] Å; format: binding; conditions: alpha-anomer, negative subsites of chain A
[4] = substrate: O=[N+]([O-])c1ccc(O[C@@H]2O[C@H](CO)[C@@H](O[C@@H]3O[C@H](CO)[C@@H](O)[C@H](O)[C@H]3O)[C@H](O)[C@H]2O)cc1; assay: chromogenic substrate hydrolysis, PNP release; format: biochemical, Vitis vinifera; conditions: 20 mM sodium citrate, pH 6, 30°C
[5] = substrate: O=[N+]([O-])c1ccc(O[C@@H]2O[C@H](CO)[C@@H](O[C@@H]3O[C@H](CO)[C@@H](O[C@@H]4O[C@H](CO)[C@@H](O)[C@H](O)[C@H]4O)[C@H](O)[C@H]3O)[C@H](O)[C@H]2O)cc1; assay: chromogenic substrate hydrolysis, PNP release; format: biochemical, Vitis vinifera; conditions: 20 mM sodium citrate, pH 6, 30°C
purified protein [6] = substrate: O=[N+]([O-])c1ccc(O[C@@H]2O[C@H](CO)[C@@H](O[C@@H]3O[C@H](CO)[C@@H](O)[C@H](O)[C@H]3O)[C@H](O)[C@H]2O)c([N+](=O)[O-])c1; assay: purified protein; conditions: 20 mM sodium citrate, pH 6, 30°C
purified protein [7] = substrate: O=[N+]([O-])c1ccc(O[C@@H]2O[C@H](CO)[C@@H](O[C@@H]3O[C@H](CO)[C@@H](O[C@@H]4O[C@H](CO)[C@@H](O)[C@H](O)[C@H]4O)[C@H](O)[C@H]3O)[C@H](O)[C@H]2O)c([N+](=O)[O-])c1; assay: purified protein; conditions: 20 mM sodium citrate, pH 6, 30°C
[8] = substrate: O=[N+]([O-])c1ccc(O[C@@H]2O[C@H](CO)[C@@H](O[C@@H]3O[C@H](CO)[C@@H](O[C@@H]4O[C@H](CO)[C@@H](O)[C@H](O)[C@H]4O)[C@H](O)[C@H]3O)[C@H](O)[C@H]2O)c(Cl)c1; assay: chromogenic substrate hydrolysis, CNP release; format: biochemical, Vitis vinifera; conditions: 20 mM sodium citrate, pH 6, 30°C
[9] = substrate: O=[N+]([O-])c1ccc(O[C@@H]2O[C@H](CO)[C@@H](O[C@@H]3O[C@H](CO)[C@@H](O)[C@H](O)[C@H]3O)[C@H](O)[C@H]2O)c(Cl)c1; assay: chromogenic substrate hydrolysis, CNP release; format: biochemical, Vitis vinifera; conditions: 20 mM sodium citrate, pH 6, 30°C
[10] = substrate: O=[N+]([O-])c1ccc(O[C@@H]2O[C@H](CO)[C@@H](O[C@@H]3O[C@H](CO[C@H]4OC[C@@H](O)[C@H](O)[C@H]4O)[C@@H](O[C@@H]4O[C@H](CO[C@H]5OC[C@@H](O)[C@H](O)[C@H]5O)[C@@H](O[C@@H]5O[C@H](CO[C@H]6OC[C@@H](O)[C@H](O)[C@H]6O)[C@@H](O)[C@H](O)[C@H]5O)[C@H](O)[C@H]4O)[C@H](O)[C@H]3O)[C@H](O)[C@H]2O)c(Cl)c1; assay: chromogenic substrate hydrolysis, CNP release; format: biochemical, Vitis vinifera; conditions: 20 mM sodium citrate, pH 6, 30°C

OC[C@H]1OC(O)[C@H](O)[C@@H](O)[C@@H]1O[C@@H]1O[C@H](CO[C@H]2OC[C@@H](O)[C@H](O)[C@H]2O)[C@@H](O[C@@H]2O[C@H](CO[C@H]3OC[C@@H](O)[C@H](O)[C@H]3O)[C@@H](O[C@@H]3O[C@H](CO[C@H]4OC[C@@H](O)[C@H](O)[C@H]4O)[C@@H](O)[C@H](O)[C@H]3O)[C@H](O)[C@H]2O)[C@H](O)[C@H]1O (stereo partly drawn) [XXXG]
X-ray crystallography, 1.59 Å (VvEG16 [1]): Fortuitous crystallization of this variant in complex with the heptasaccharide XXXG in the negative subsites
X-ray crystallography, 1.79 Å (VvEG16 [2]): Chain A additionally contained an apparent XXXG moiety in the negative subsites

OC[C@H]1O[C@@H](O[C@@H]2[C@@H](O)[C@H](O[C@H]3[C@H](O)[C@@H](O)[C@H](O[C@H]4[C@H](O)[C@@H](O)C(O)O[C@@H]4CO)O[C@@H]3CO)O[C@H](CO)[C@H]2O)[C@H](O)[C@@H](O)[C@@H]1O (stereo partly drawn) [G3GGG, β-D-Glcp-(1,3)-β-D-Glcp-(1,4)-β-D-Glcp-(1,4)-β-D-Glcp]
X-ray crystallography, 1.65 Å (VvEG16 [3]): presence of the α-anomer of G3GGG in the negative subsites

B1: VvEG16 (Vitis vinifera; DEL151-151) (protein)
chain: MADPSLHHEAQPLKFIAVDYCPESCTHSPESSTITLTFDHRGGSRWRSTTRFQYGTFSSLIQCPKGNTSGLNFNIYLSSLEGDKSQDEIDFEFLGKDKRIVQTNYYTAGTGNREAIHDLGFDCSDGFHEYVIKWGPDLIQWLIDGKVIRSVRADGEGFPQKPMFLYASVWDASYIDEGRWTGPYVGCDAPYICLYKNVNVPVGTAVE
Km [4]: 5900 ± 600 µM
kcat [4]: 0.000383 ± 3.33e-05 s⁻¹
kcat/Km [4]: 0.065 M⁻¹ s⁻¹
Km [5]: 2800 ± 200 µM
kcat [5]: 0.0025 ± 0.0001 s⁻¹
kcat/Km [5]: 0.9 M⁻¹ s⁻¹
Km (purified protein [6]): 2000 ± 200 µM
kcat (purified protein [6]): 0.333 ± 0.0167 s⁻¹
kcat/Km (purified protein [6]): 170 M⁻¹ s⁻¹
Km (purified protein [7]): 800 ± 60 µM
kcat (purified protein [7]): 1.58 ± 0.0333 s⁻¹
kcat/Km (purified protein [7]): 2000 M⁻¹ s⁻¹
Km [8]: 1100 ± 100 µM
kcat [8]: 0.0172 ± 0.000667 s⁻¹
kcat/Km [8]: 16 M⁻¹ s⁻¹
Km [9]: 3500 ± 400 µM
kcat [9]: 0.0075 ± 0.000333 s⁻¹
kcat/Km [9]: 2.1 M⁻¹ s⁻¹

B2: VvEG16 (Vitis vinifera) (protein)
chain: MADPSLHHEAQPLKFIAVDYCPESCTHSPESSTITLTFDHRGGSRWRSTTRFQYGTFSSLIQCPKGNTSGLNFNIYLSSLEGDKSQDEIDFEFLGKDKRIVQTNYYTAGTGNREAIHDLGFDCSDGFHEYVIKWGPDLIQWLIDGKVIRSVVRADGEGFPQKPMFLYASVWDASYIDEGRWTGPYVGCDAPYICLYKNVNVPVGTAVE
Km [8]: 800 ± 100 µM
kcat [8]: 0.0163 ± 0.0005 s⁻¹
kcat/Km [8]: 20 M⁻¹ s⁻¹
Km [10]: 1100 ± 300 µM
kcat [10]: 0.2 ± 0.00833 s⁻¹
kcat/Km [10]: 180 M⁻¹ s⁻¹

— article PMC5315667 (The Plant journal : for cell and molecular biology, 2017)
